Among the data in a protein production outcome set (Wang et al. 2014) are protein production values, retold here.

This data set can be described thus: label from the status in PepcDB records.

As to “MGMTVVIILVFSFFVAIVTAETSPYIIHMDLSAKPLPFSDHRSWFSTTLTSVITNRKPKIIYAYTDSVHGFSAVLTNSELQRLKHKPGYVSFTKDLPVKLHTTFSPKFIGLNSTSGTWPVSNYGAGIVIGIIDTGIWPDSPSFHDDGVGSVPSKWKGACEFNSSSLCNKKLIGAKVFNKGLFANNPDLRETKIGQYSSPYDTIGHGTHVAAIAAGNHVKNASYFSYAQGTASGIAPHAHLAIYKAAWEEGIYSSDVIAAIDQAIRDGVHVISLSLGLSFEDDDDNDGFGLENDPIAVASFAAIQKGVFVVTSGGNDGPYYWSLINGAPWIMTVGAGTIGRQFQGTLTFGNRVSFSFPSLFPGEFPSVQFPVTYIESGSVENKTLANRIVVCNENINIGSKLHQIRSTGAAAVVLITDKLLEEQDTIKFQFPVAFIGSKHRETIESYASSNKNNATAKLEFRKTVIGTKPAPEVGTYSSRGPFTSFPQILKPDILAPGTLILSAWPSVEQITGTRALPLFSGFNLLTGTSMAAPHVAGVAALIKQVHPNWSPSAIKSAIMTTALTLDNPLAVGAGHVSTNKVLNPGLIYDTTPQDFINFLCHEAKQSRKLINIITRSNISDACKKPSPYLNYPSIIAYFTSDQSSPKIFKRTLTNVGEAKRSYIVRVRGLKGLNVVVEPKKLMFSEKNEKLSYTVRLESPRGLQENVVYGLVSWVDEDEAEFEVSCSVVATSLVQES”, the protein production entry is on record as “failed”. On to “MGNDNVTIKLEHRVKTSADLSDYVYKYERAYTDALNNGDDIKEASESTKKELNQLIDRTDLTYSDGMYDKETGIAAIAVKDKNTGETYIAYAGTNKDADGATDFISDANIGANNSAYLKRLGDKATSFYDRVQSNGDNITVTTGHSYGDFLASRVAIELIPFFINFRKVNDSFHFCY”, for which the protein production entry is “failed”. Consider “MGNGLAKCLIDGDTETFWHAKWQGGSDPLPYDIVIDMKQNIQIAQVELLPRGRGSNNPIKVVEFAASEDNVNWTPIGRFGFTNQDAALEYYVKSIKARYIRLTIPDDGGNSTVAAIRELDVKGTIINLEHHHHHH”, for which the protein production entry is listed as “failed”.

Turning to “MGNHFSKLGFVLAALGSAIGLGHIWRFPYMTGVSGGGAFVLLFLFLSLSVGAAMFIAEMLLGQSTQKNVTEAFKELDINPKKRWKYAGLLLVSGPLILTFYGTILGWVLYYLVSVSFNLPNNIQESEQIFTQTLQSIGLQSIGLFSVLLITGWIVSRGIKEGIEKLNLVLMPLLFATFFGLLFYAMSMDSFSKAFHFMFDFKPKDLTSQVFTYSLGQVFFSLSIGLGINITYAAVTDKTQNLLKSTIWVVLSGILISLVAGLMIFTFVFEYGANVSQGTGLIFTSLPVVFGQMGAIGILVSILFLLALAFAGITSTVALLEPSVMYLTERYQYSRFKVTWGLVALIFVVGVVLIFSLHKDYKDYLTFFEKSLFDWLDFASSTIIMPLGGMATFIFMGWVLKKEKLRLLSVHFLGPKLFATWYFLLKYITPLIVFSIWLSKIY”, the protein production entry is reported as “failed”.

Regarding “MGNMISAVVAAAGRGSRMMRDMAELGLEPVHKLLLPLNGVTVIEATVKAVLSAGVDECIVVTGHRAGEVEEALSGMDVRVVRNDPVDVPLSASLLRGVRAAGGDIILCAAGDQPAVSPATLRRIAEHADGSTVSILARGESGWLDNARGIGMPLAAGADLLRDYLPLGDGNINPLLWMMLEDGVRLYGVEASRPIELVNINHYSDYLRIRDHFLRTNADGN”, the protein production result is given as “failed”. As to “MGPIGAEADENQTVEEMKVEQYGPQTTPRGELVPDPEPELIDSTKLIEVQVVLILAYCSIILLGVIGNSLVIHVVIKFKSMRTVTNFFIANLAVADLLVNTLCLPFTLTYTLMGEWKMGPVLCHLVPYAQGLAVQVSTITLTVIALDRHRCIVYHLESKISKRISFLIIGLAWGISALLASPLAIFREYSLIEIIPDFEIVACTEKWPGEEKSIYGTVYSLSSLLILYVLPLGIISFSYTRIWSKLKNHVSPGAANDHYHQRRQKTTKMLVCVVVVFAVSWLPLHAFQLAVDIDSQVLDLKEYKLIFTVFHIIAMCSTFANPLLYGWMNSNYRKAFLSAFRCEQRLDAIHSEVSVTFKAKKNLEVRKNSGPNDSFTEATNV”, the protein production entry is listed as “failed”.

For “MGPVPIKLALVIPNYNHSAAISQALSELAALNLPCYLIDDGSNDETRYLLQSLAEQHDWVTLLQHPYNRGKGAAVMTGLRSAYRDGFTHALQVDADGQHNLSDIPAMLAKAQAKPDALISGKPEYDKSVPKGRLYGRYLTHFWVWVETLSFDIQDSMCGFRVYPLAATERLFSKQALTERMDFDIEILVKLYWQGVEILFHPTKVIYPENGVSHFQCVADNVRISKLHTRLFFGMLKRLPQLLRRKQAAKSTSSAHTATHWSAMKERGSYWGIKLLVESYRFGGHWLCRAIMYPVICYFFLTGKVSREASRDFLRRVQHLEPQHPQLNQPVGWRDSLNHFIAFGNAALDRIDAWCDRIQLSQVDFPDRQVLADQLESGKGAVLLVSHLGNLELCRAISIHQRKVKVNVMVLTSHAENFNNVLKQLNPNSSLNLIQVTELNPATSMLLQQKIEDGELVVIAGDRTSSHAQGRVVYAPFMGQDAAFPQGPFILAGLLDCPVYLMFCLREQGRYRVHLERFAETLKGPRAGRMERLQQAVYRYSERLEHYARREPLQWFNFFDFWRDDNQVNRATSAHKTTAALPEQERTTDRTEHLLEHHHHHH”, the protein production result is “not failed”. For “MGQIPPQPVRRVLPLMVVPGNGQKWRNRTETEEAMGDTYRDPVDHLRTTRPLAGESLIDVVHWPGYLLIVAGVVGGVGALAAFGTGHHAEGMTFGVVAIVVTVVGLAWLAFEHRRIRKIADRWYTEHPEVRRQRLAG”, the protein production entry was “failed”.

In the case of “MGQIQQPIQGYDSTSPCGDNRDPQPFDFNFIFAFQPIVNIKNGHIYAQEALVRGLKGEGAHSILSRIDENNRYSFDQKARDKALQSALSCNWDGAISINFMPNAVYYPEYCLSQTLSTCEKLGINPARLIFEWSEKEYLTEYDHIRHVISRYKHLNFKVAFDDFGGLYSNFNLLTAYHPDIIKLDRHYVVGIEHDKRRRAVVKAMVGLCRDLGIDFVVEGVETIEEFKVLQDLGVDLMQGFLLARPALMQMPQATMPP”, the protein production result was “failed”.

Consider “MGQMISEMRHGVRRPVWHDLAERFDEPRECLASFLALEAAEVLAGEKPANLIGIANRTRACGRNLYVLWKQWGAMVLGESGLAVRELSDRGDSLLLLLYRPEALEALLRRPSASAVLARAGYGAATGLDEVLTELSTRIDGDRFPHEIGVFLGYPLKDVAAFMGLVRIPFACQGPWKIFGDPRESLRLAEVFRCCRARMAERLNRCTSALDCLADGSPRPVVGFDEIESHSYGGKAMCIAVIGGMDRLEKHYREEAVRSGVELRMFSQSENNIAVKLKRFDALVIFTNKVSHRVKNEAMAVAKQNGIPVFMHHSCGVCTLRDCLSCLTATVAHVGESDRPDLGRRKNHS”, for which the protein production result is listed as “failed”.

For “MGQVEVIDRRQSVFGDDIQLQKRSSSYEIISNGVFLMSTENGRSEREMVTLGAQHMKNAVHSVLIGGLGVGITADEAVHLNDHVQVHVVEIEPSVVEWQYRYLYPFSNQALEHERTAIIISDIQQWLRTNERTYDLICLDTDNGPDWMVHKQNASLYGKIGLELVRERVRVGGAVSFWSASASESFLHELETLFDRVYEHAVSLEHHHHHH”, the protein production entry is given as “failed”.

“MGRGRKHTDAAAEQRELAIKANIVDEPFSVSAIDRSIRKAEWVKTETDQILSGRCPETDGTWLGISTRGRVAFLVEAGTINRDRFNGAESRTLEFLESNESPEDFAKSSAADYIRNKNTAAFHLIVADIASNSMLYISKPRFSDYGIVYTEPVGPGVHTLSSAGLDSDVGYRDLRMRHSFCEMINRERLPPIRDIAEIMYDPVKAYESVLLSSIFFVDMKIGYEHYGTRITTALVVKRTKEVLFFERYREIFNDDWDDHDFAFTII”: the protein production result was “failed”. As for “MGRKMGISGKLYSFLYLRGFKVWVSYRTQTVLTVLGWVLPVFTYYFTGTALGNRLVNEVGVSNYTAFFTIGLAFQGYVSSVISTISQRLRNEQLYGTIEYYVISRTGTFGFLLYSALWGLTLNTINAIIILAVGFALNIHYNVNIVSAIVIIVLLILSTLGIGMIAGAVTMVTKQGNPISFFFNTFTNLLGGTVFPVTVLPLYVRYISYGIPLTWALEGLREAFLNGAPITDIAPFIIILTIFDIVLLPLGVFSYNHAFKKAREKGTLGEY”, the entry is “failed”.
